Experimental data published in publication PMC9352680, “A comprehensive thermodynamic model for RNA binding by the Saccharomyces cerevisiae Pumilio protein PUF4”.
Substitutions are numbered along the chain they refer to. Numbers in names are those of the source.

T1: PUF4 RNA-binding domain (Saccharomyces cerevisiae, UniProt P25339 537-888)
T1 sequence: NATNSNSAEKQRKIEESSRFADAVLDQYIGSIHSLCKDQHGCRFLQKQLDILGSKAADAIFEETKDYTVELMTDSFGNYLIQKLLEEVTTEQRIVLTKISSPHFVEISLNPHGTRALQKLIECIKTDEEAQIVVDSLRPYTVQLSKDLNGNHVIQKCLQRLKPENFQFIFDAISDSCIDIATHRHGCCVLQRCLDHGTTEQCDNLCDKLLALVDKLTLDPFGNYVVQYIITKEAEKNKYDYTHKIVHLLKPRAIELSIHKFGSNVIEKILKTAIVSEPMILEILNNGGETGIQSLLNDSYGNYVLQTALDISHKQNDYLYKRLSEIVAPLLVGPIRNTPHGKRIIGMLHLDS

B1: Ib_S2_P4E.1_K4.1_C4.1_H4.1_[T1A]_[G2C]_A4.1_F4.1_T4.1 (ssRNA)
RNA: UUUGAUUAAUAUGAUAUCGUUCUUUCUACUAUAUUAUUCUUUCUCGAUAUCAUAUUAAUCUUU
B2: Ib_S2_P4E.1_K4.1_C4.1_H4.1_A4.1_[A6C]_F4.1_[A9G]_T4.1 (ssRNA)
RNA: B1 RNA with A28U, C29G, A33C, A36G
B3: Ib_S2_P4E.1_K4.1_C4.1_H4.1_[G2T]_[A4C]_A4.1_F4.1_T4.1 (ssRNA)
RNA: B1 RNA with A28U, C29U, A31C
B4: Ib_S2_P4E.1_K4.1_C4.1_H4.1_[T1A]_A4.1_[A6T]_F4.1_T4.1 (ssRNA)
RNA: B1 RNA with C29G, A33U
B5: Ic_S2_P4E.1_K4.1_C4.1_H4.1_A4.1_[T7A]_F4.1_[T8A]_T4.1 (ssRNA)
RNA: B1 RNA with A28U, C29G, U34A, U35A
B6: Ia_S2_P4E.1_K4.1_C4.1_H4.1_A4.1_F4.1_[A9C]_T4.1 (ssRNA)
RNA: B1 RNA with A28U, C29G, A36C
B7: Ib_S2_P4E.1_K4.1_C4.1_H4.1_[G2T]_[T3A]_A4.1_F4.1_T4.1 (ssRNA)
RNA: B1 RNA with A28U, C29U, U30A
B8: Ib_S2_P4E.1_K4.1_C4.1_H4.1_[G2A]_[A4G]_A4.1_F4.1_T4.1 (ssRNA)
RNA: B1 RNA with A28U, C29A, A31G
B9: Ic_S2_P4E.1_K4.1_C4.1_H4.1_A4.1_[A6C]_F4.1_[A9C]_T4.1 (ssRNA)
RNA: B1 RNA with A28U, C29G, A33C, A36C
B10: Ic_S2_P4E.1_K4.1_C4.1_H4.1_A4.1_[T7A]_F4.1_[A9T]_T4.1 (ssRNA)
RNA: B1 RNA with A28U, C29G, U34A, A36U
B11: Ib_S2_P4E.1_K4.1_C4.1_H4.1_[T1G]_[G2T]_A4.1_F4.1_T4.1 (ssRNA)
RNA: B1 RNA with A28G, C29U
B12: Ib_S2_P4E.1_K4.1_C4.1_H4.1_[T1C]_A4.1_[T7G]_F4.1_T4.1 (ssRNA)
RNA: B1 RNA with A28C, C29G, U34G
B13: Ib_S2_P4E.1_K4.1_C4.1_H4.1_A4.1_[A6G]_F4.1_[A9T]_T4.1 (ssRNA)
RNA: B1 RNA with A28U, C29G, A33G, A36U
B14: Ic_S2_P4E.1_K4.1_C4.1_H4.1_A4.1_[T7G]_F4.1_[A9T]_T4.1 (ssRNA)
RNA: B1 RNA with A28U, C29G, U34G, A36U
B15: Ib_S2_P4E.1_K4.1_C4.1_H4.1_[G2C]_[T3A]_A4.1_F4.1_T4.1 (ssRNA)
RNA: B1 RNA with A28U, U30A
B16: Ib_S2_P4E.1_K4.1_C4.1_H4.1_[T3C]_[A4T]_A4.1_F4.1_T4.1 (ssRNA)
RNA: B1 RNA with A28U, C29G, U30C, A31U
B17: Ib_S2_P4E.1_K4.1_C4.1_H4.1_[G2A]_[T3C]_A4.1_F4.1_T4.1 (ssRNA)
RNA: B1 RNA with A28U, C29A, U30C
B18: Ia_S2_P4E.1_K4.1_C4.1_H4.1_[A4C]_A4.1_F4.1_T4.1 (ssRNA)
RNA: B1 RNA with A28U, C29G, A31C
B19: Ic_S2_P4E.1_K4.1_C4.1_H4.1_A4.1_[T7A]_F4.1_[A9G]_T4.1 (ssRNA)
RNA: B1 RNA with A28U, C29G, U34A, A36G
B20: Ib_S2_P4E.1_K4.1_C4.1_H4.1_A4.1_[T7C]_F4.1_[A9T]_T4.1 (ssRNA)
RNA: B1 RNA with A28U, C29G, U34C, A36U
B21: Ib_S2_P4E.1_K4.1_C4.1_H4.1_[T1C]_A4.1_[A6T]_F4.1_T4.1 (ssRNA)
RNA: B1 RNA with A28C, C29G, A33U
B22: Ib_S2_P4E.1_K4.1_C4.1_H4.1_A4.1_[A6T]_F4.1_[A9T]_T4.1 (ssRNA)
RNA: B1 RNA with A28U, C29G, A33U, A36U
B23: Ib_S2_P4E.1_K4.1_C4.1_H4.1_[T1G]_[A4C]_A4.1_F4.1_T4.1 (ssRNA)
RNA: B1 RNA with A28G, C29G, A31C
B24: Ib_S2_P4E.1_K4.1_C4.1_H4.1_[G2A]_[T3A]_A4.1_F4.1_T4.1 (ssRNA)
RNA: B1 RNA with A28U, C29A, U30A
B25: Ib_S2_P4E.1_K4.1_C4.1_H4.1_[G2T]_[A4T]_A4.1_F4.1_T4.1 (ssRNA)
RNA: B1 RNA with A28U, C29U, A31U
B26: Ia_S2_P4E.1_K4.1_C4.1_H4.1_[T1A]_A4.1_F4.1_T4.1 (ssRNA)
RNA: B1 RNA with C29G
B27: Ia_S2_P4E.1_K4.1_C4.1_H4.1_[G2T]_A4.1_F4.1_T4.1 (ssRNA)
RNA: B1 RNA with A28U, C29U
B28: Ib_S2_P4E.1_K4.1_C4.1_H4.1_A4.1_[T7A]_F4.1_[A9C]_T4.1 (ssRNA)
RNA: B1 RNA with A28U, C29G, U34A, A36C
B29: Ic_S2_P4E.1_K4.1_C4.1_H4.1_A4.1_[T5C]_F4.1_[A9C]_T4.1 (ssRNA)
RNA: B1 RNA with A28U, C29G, U32C, A36C
B30: Ib_S2_P4E.1_K4.1_C4.1_H4.1_A4.1_[T5A]_F4.1_[A9T]_T4.1 (ssRNA)
RNA: B1 RNA with A28U, C29G, U32A, A36U

These binders were tested against T1, PUF4 RNA-binding domain (assay: Mg; RNA-MaP; 20 mM Na-HEPES pH 7.4, 30 mM KOAc, 0.75 mM MgCl2, 0.1% Tween-20, 5% glycerol, 0.1 mg/mL BSA, 2 mM DTT; 25 C; 0.0125-409.6 nM protein). Details: tags: N-His6-TEV cleaved; C-SNAP kept, Cy3B-labelled; label: tethered on chip by stalled RNA polymerase.

| Binder | Kd |
| --- | --- |
| B1 | 174 nM |
| B2 | 9.54 nM |
| B3 | > 2300 nM |
| B4 | 739 nM |
| B5 | 16.9 nM |
| B6 | 2.83 nM |
| B7 | 2120 nM |
| B8 | 13.3 nM |
| B9 | 14.5 nM |
| B10 | 4.33 nM |
| B11 | 7.76 nM |
| B12 | 132 nM |
| B13 | 18.3 nM |
| B14 | 11.6 nM |
| B15 | > 2300 nM |
| B16 | 667 nM |
| B17 | 1430 nM |
| B18 | 4.11 nM |
| B19 | 5.97 nM |
| B20 | 2.73 nM |
| B21 | 126 nM |
| B22 | 9.83 nM |
| B23 | 1520 nM |
| B24 | > 2300 nM |
| B25 | > 2300 nM |
| B26 | 103 nM |
| B27 | 137 nM |
| B28 | 12.3 nM |
| B29 | 2.72 nM |
| B30 | 11 nM |
